B1: DotY (natural protein)
chain: MPKYTLPTRDALLKAMQVGETSIEAAEYMATRFEQILTKAKLLPECNDMLEKIKEYAQFVKFKLLSSAQVWSGQERPTSDYQNTQENKAEFLASHLEGLPSGLKLEVAIGDDAKILRGFSSNGKMVEGDQLKTMDGLLEGWLAKNSLAISGGAVVKIDNTGNQTKVDPQEIRQLINDSEKGVAKYFADKGVGMEVAQRTYQEPKALETKREEIRQEIESGAEAPTTQSIR
notes: also called lpg0294
B2: DotZ (natural protein)
chain: MDEIKKDDELSQWLSTYGTITAERILGRYNISLPQDEILEAINIPSSFYRHLLQIPLKNVLNGIVIQQASDYHVYAQKLLIDYLLSGESSKEPDSQGAGTRESLEDERQRLVQLGDEFHKLELEQDNLIASSQASLMKISIDWNTKLETTLSKLNSLYKNTNSKIKKNAIRKALIKAFIHCDLVKDQSQKNKYQLIDKLNQTLAVSVGAELKESILTNLSELFQILEALNTKLDEFTDRTNHLSQQAKSFRTQFYEVILRIIELIKLLPEYKIDPAQDAINREPLYFDRTIGER
notes: also called lpg1549
B3: DotN (natural protein)
chain: MNVNQTMADNQQRCELKLIASPGSWRLYSARKIDERFKSYEQKIFQRDRYTCQFCGFQARLYQDIVNLDGDYTNNRLSNLVTACCFCAQCFFVESVGVGGYGGGTLIYLPELTQAELNSLCHVLFCAITNDTGYKSSAQNIYRSFKFRSQIVEEKFGEGTSDPAIFGQLMIDSGVNSEEIREKLFKNIRLLPSRAKFRKQIEKWAASALEEIAD
B4: DotM (natural protein)
chain: MYIEMAQQQQQSGSDNSMAPVWIVILLFITAYFVWALAHQYIVSFVFTINIWQARLVNLFLNNQLLANQIYLMQTLDPNTVNWDQMVTVMRAVGDYMRYPVICILVVLAFVLYNSNVTLKYRKTYDMKSLRAQEQFNWPAIMPIVKEDLVSQDVNKGPWAMALTPMEFARKYNLLRKDDALLDNPVPGEEMTAGIRRGDAKRVFTMQLGPYWDGFERCSPQAYALSAVFMARMNRDRDAANNILKVLDKTFVDGKPDFSVARPVMKKYQNSELVQEVVAKHAYVLTVIASLLEAAREDGVVPSSEFLWLKPVDRRLWYMLNCVGRQTPYSEVAGPFAHWKAEKEMGRRSLVPMIDEAIRALEIAVKEVRLTPRQMEELEP

The target of assay [1] is B2. The assay is described as follows: cryo-EM structure. The settings on record: both partners purified.
In assay [2] the target is B4. The assay is described as follows: cryo-EM structure. Particulars: both partners purified.
Assay [3] deals with T1, DotL with a Strep-tag at the C-terminus (Legionella pneumophila (strain Lp01), UniProt Q5ZYC6 1-783).
T1 construct: also called DotL_(Strep); DotL_(strep)
T1 sequence: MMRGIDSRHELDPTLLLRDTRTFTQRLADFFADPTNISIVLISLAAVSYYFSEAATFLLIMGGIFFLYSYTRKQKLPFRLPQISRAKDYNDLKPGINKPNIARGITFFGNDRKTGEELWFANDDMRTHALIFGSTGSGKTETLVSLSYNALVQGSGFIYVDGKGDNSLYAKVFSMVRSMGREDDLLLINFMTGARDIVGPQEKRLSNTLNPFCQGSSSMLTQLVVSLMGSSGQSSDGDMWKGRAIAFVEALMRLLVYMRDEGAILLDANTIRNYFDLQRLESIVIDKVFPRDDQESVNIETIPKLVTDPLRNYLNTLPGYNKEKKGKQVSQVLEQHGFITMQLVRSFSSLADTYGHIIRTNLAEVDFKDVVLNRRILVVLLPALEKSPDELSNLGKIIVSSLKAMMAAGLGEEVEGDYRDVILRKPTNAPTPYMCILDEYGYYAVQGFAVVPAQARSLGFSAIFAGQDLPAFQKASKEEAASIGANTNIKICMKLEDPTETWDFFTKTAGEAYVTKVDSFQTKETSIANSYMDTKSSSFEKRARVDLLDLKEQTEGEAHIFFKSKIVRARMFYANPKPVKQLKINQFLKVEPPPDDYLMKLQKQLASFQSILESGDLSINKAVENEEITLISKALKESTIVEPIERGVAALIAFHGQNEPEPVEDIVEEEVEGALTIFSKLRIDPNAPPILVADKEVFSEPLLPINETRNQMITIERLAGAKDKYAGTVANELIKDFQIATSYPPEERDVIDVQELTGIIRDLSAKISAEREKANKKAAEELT
The assay is described as follows: cryo-EM structure. Particulars: both partners purified.

The target in assay [4] is T1, DotL with a Strep-tag at the C-terminus. The assay is described as follows: affinity purification with mass spectrometry. The settings on record: partners not purified.

B1: the binding result in assay [1] is “binds”.
As for B2, the binding result in assay [2] is on record as “binds”.
Turning to B3, the binding result in assay [1] and in assay [3] was “binds” each time.
Consider B4, for which, in assay [4], the binding result is “binds”.

Source of the values: article PMC9300119, “Proteins DotY and DotZ modulate the dynamics and localization of the type IVB coupling complex of Legionella pneumophila” (Molecular Microbiology, 2021).
